Data on 1 variant can be found in IntAct's records for PubMed 11102519.

First the molecules themselves.
B1: Transmembrane 4 L6 family member 1 (Homo sapiens), P30408 (parent)
chain: MCYGKCARCIGHSLVGLALLCIAANILLYFPNGETKYASENHLSRFVWFFSGIVGGGLLMLLPAFVFIGLEQDDCCGCCGHENCGKRCAMLSSVLAALIGIAGSGYCVIVAALGLAEGPLCLDSLGQWNYTFASTEGQYLLDTSTWSECTEPKHIVEWNVSLFSILLALGGIEFILCLIQVINGVLGGICGFCCSHQQQYDC
partner: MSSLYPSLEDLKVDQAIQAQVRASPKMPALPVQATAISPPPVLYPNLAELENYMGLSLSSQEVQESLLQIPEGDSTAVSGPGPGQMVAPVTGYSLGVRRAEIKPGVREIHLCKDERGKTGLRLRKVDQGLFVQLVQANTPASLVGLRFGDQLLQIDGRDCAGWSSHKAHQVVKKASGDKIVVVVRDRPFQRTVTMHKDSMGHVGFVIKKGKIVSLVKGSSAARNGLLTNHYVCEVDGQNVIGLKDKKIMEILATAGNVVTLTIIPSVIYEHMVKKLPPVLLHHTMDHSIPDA

The assay covers variants of B1. The settings on record: with sdcb2_human SDCBP2, Q9H190.
Turning to MCYGKCARCIGHSLVGLALLCIAANILLYFPNGETKYASENHLSRFVWFFSGIVGGGLLMLLPAFVFIGLEQDDCCGCCGHENCGKRCAMLSSVLAALIGIAGSGYCVIVAALGLAEGPLCLDSLGQWNYTFASTEGQYLLDTSTWSECTEPKHIVEWNVSLFSILLALGGIEFILCLIQVINGVLGGICGFCCSHQQQYDG [C202G], the “effect of a mutation on the interaction” value is given as “disrupting interaction strength”.
